# Results: US5840867
# Where two headings read alike, the source gives them in different places.
# Legend:
# [1] = target: thrombin (Homo sapiens?) (UniProt P00734+P00734); experiment: filter
# [2] = target: T1, ovalbumin (UniProt P01012); experiment: filter; settings: 60 pmol ovalbumin; DNA alone 0.07%
# T1 sequence: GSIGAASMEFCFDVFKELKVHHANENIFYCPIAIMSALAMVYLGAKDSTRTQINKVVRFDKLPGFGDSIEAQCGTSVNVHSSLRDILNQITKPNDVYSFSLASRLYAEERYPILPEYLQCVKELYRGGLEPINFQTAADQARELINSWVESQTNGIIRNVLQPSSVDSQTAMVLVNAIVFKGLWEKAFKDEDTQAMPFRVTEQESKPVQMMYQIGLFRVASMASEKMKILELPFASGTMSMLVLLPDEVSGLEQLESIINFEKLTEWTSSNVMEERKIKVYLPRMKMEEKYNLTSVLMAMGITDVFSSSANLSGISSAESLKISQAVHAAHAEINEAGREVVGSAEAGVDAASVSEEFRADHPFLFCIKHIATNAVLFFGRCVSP
# [3] = target: bradykinin (peptide, thiopropyl-derivatised on Sepharose for selection) (UniProt P01042); settings: method not stated, cited from earlier work
# bradykinin (peptide, thiopropyl-derivatised on Sepharose for selection), sequence (P01042 whole entry, looked up, tested part not stated): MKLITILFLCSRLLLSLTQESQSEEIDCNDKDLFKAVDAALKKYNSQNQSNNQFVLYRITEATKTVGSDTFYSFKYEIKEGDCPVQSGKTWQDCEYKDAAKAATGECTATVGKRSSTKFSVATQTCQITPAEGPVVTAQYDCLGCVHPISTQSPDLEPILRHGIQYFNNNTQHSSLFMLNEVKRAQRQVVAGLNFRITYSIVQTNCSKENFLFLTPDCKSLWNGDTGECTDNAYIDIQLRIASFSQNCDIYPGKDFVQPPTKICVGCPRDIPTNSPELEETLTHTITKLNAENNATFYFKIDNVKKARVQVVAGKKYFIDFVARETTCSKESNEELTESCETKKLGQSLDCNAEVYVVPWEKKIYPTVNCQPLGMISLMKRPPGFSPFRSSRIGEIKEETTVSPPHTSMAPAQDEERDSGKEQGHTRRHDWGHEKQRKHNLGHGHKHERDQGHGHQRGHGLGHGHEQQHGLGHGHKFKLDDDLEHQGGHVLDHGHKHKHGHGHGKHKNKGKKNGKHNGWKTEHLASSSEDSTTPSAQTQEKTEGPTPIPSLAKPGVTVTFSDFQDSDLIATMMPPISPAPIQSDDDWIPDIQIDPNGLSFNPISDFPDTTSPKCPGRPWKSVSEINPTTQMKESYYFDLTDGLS
sequence,measurement,setting,value
CGTACGGTCGACGCTAGCNNNNNNNNNNNNNNNNNNNNNNNNNNNNNNNNNNNNNNNNNNNNNNNNNNNNNNNNNNNNCACGTGGAGCTCGGATCC [Round 5 thrombin aptamer pool (96-mer)],binding signal,"[1]; 60 pmol thrombin, 3.5 pmol DNA in 200 uL selection buffer, RT 1 h, DNA alone 0.07%",20.4 % DNA bound
same,binding signal,[2],0.05 % DNA bound
CGTACGGTCGACGCTAGCNNNNNNNNNNNNNNNNNNNNNNNNNNNNNNNNNNNNNNNNNNNNNNNNNNNNNNNNNNNNCACGTGGAGCTCGGATCC [unselected 96-mer pool],binding signal,"[1]; unselected DNA, DNA alone 0.08%",0.06 % DNA bound
same,Kd,[3]; unselected DNA,> 1000 µM
CGTACGGTCGACGCTAGCNNNNNNNNNNNNNNNNNNNNNNNNNNNNNNNNNNNNNNNNNNNNNNNNNNNNNNNNNNNNCACGTGGAGCTCGGATCC [Round 5 bradykinin aptamer pool],Kd,[3]; pool,50 µM
